Assay [1] addresses calcineurin, WT CN (CNA_(1–370):CNB_(1–170)) (human) (UniProt Q08209).
Assay [2] has the same target. Nature of the assay: ITC; NHE1 or variants (30–50 µM, syringe) titrated into CN (5–10 µM, cell), 25 °C, 20 mM Tris–HCl pH 7.5, 100 mM NaCl, 1 mM CaCl2, 0.5 mM TCEP; single site-binding model.
For assay [3], the target named is CNAA variant (CNA: H155A/Y159A, CNB), crystallisation construct CNA M1-N370 H155A Y159A, CNB 16–170 (human) (UniProt Q08209).
Assay [4] deals with CNA alone (alpha isoform: H27-D348; two C-terminal Asp residues added) (human) (UniProt Q08209).

This note sets out measurements from publication PMC6677818.

Chain of UniProt Q08209 (Q08209 other isoform, or with tags, fused parts or gaps): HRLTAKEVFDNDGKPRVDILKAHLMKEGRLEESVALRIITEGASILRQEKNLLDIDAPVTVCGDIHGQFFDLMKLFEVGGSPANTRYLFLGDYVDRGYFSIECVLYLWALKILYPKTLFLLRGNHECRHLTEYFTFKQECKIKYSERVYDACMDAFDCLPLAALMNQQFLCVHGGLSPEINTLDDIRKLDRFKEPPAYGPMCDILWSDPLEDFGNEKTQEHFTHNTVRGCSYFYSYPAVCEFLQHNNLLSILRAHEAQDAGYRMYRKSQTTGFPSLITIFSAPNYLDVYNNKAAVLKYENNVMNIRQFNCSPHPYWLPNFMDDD

Consider “NHE1ct P782A (NHE1 I680-Q815) (from UniProt P19634 680-815) (domain or fragment)”, for which the apparent in vitro dephosphorylation rate k (dephos) of pT779 of ERK2-phosphorylated NHE1ct variant by CN (NMR time course) in assay [1] was found to be 0.028 h^-1. Besides, in assay [2], the Kd turned out to be 48 nM and the dH was -2.8 kcal/mol.
As for “NHE1ct WT (human NHE1 I680-Q815) (from UniProt P19634 680-815) (domain or fragment)”, the apparent in vitro dephosphorylation rate k (dephos) of pT779 of ERK2-phosphorylated NHE1ct by CNAA (NMR time course; 20:1 NHE1ct:CN, rate normalized using wt-NHE1ct) in assay [3] stood at 0.06 h^-1. Further, the apparent in vitro dephosphorylation rate k (dephos) of pT779 of ERK2-phosphorylated NHE1ct by CNA alone (NMR time course) in assay [4] amounted to 0.347 h^-1. For the same substance, in assay [2], the Kd is 59 nM, the dH is -12 kcal/mol and the stoichiometry N is 1.
As to “NHE1ct_(ATAP) (NHE1 I680-Q815, L684A, V686A) (from UniProt P19634 680-815) (domain or fragment)”, the apparent in vitro dephosphorylation rate k (dephos) of pT779 of ERK2-phosphorylated NHE1ct variant by CN (NMR time course) in assay [1] was 0.642 h^-1. For the same substance, in assay [2], the Kd came out at 4800 nM and the dH is -4.5 kcal/mol.
As to “NHE1ct_(ATAP/AVATAA) (NHE1 I680-Q815, L684A, V686A, P715A, I717A, I719A, D720A) (from UniProt P19634 680-815) (domain or fragment)”, the apparent in vitro dephosphorylation rate k (dephos) of pT779 of ERK2-phosphorylated NHE1ct variant by CN (NMR time course) in assay [1] worked out at 0.811 h^-1.
Turning to “NHE1ct_(AVATAA) (NHE1 I680-Q815, P715A, I717A, I719A, D720A) (from UniProt P19634 680-815) (domain or fragment)”, the apparent in vitro dephosphorylation rate k (dephos) of pT779 of ERK2-phosphorylated NHE1ct variant by CN (NMR time course) in assay [1] was 0.011 h^-1. In assay [2], the Kd came to 2400 nM and the dH was -7.6 kcal/mol.
For the substance “NHE1ct_(Δ92RARA) (NHE1ctΔ92 698AAA700; R698A, R700A) (from UniProt P19634 680-723) (domain or fragment)”, in assay [2], the Kd is 21 nM and the dH is -12.2 kcal/mol.
As to “NHE1ctΔ92 (NHE1 I680-S723) (from UniProt P19634 680-723) (domain or fragment)”, in assay [2], the Kd amounted to 21 nM and the dH is -8.5 kcal/mol.
For the substance “NHE1ctΔ92 (PVIVIT) (from UniProt P19634 680-723) (domain or fragment)”, in assay [2], the Kd was determined as 4 nM and the dH is -9 kcal/mol.
For “PxIxIT peptide (NHE1 E709-P727) (from UniProt P19634 709-727)”, in that order: 6500 nM and -2.9 kcal/mol.
